Measured values published in patent US20250304709A1 (Eli Lilly, published 2025).
Blank lines part the entries; values can stand above or below the binder they belong to.

Columns and labels:
[1] = target: T1, mouse L1CAM-hIgG1-Fc (mouse; human, UniProt P11627 20-1123, limits assumed); assay: SPR, Biacore T200, 25 C, MBM captured by human Fab capture kit, target as analyte, 1:1 fit
T1 construct: also called mL1CAM; not shown: human IgG1 Fc
Description: (§1) A human Fab capture kit (Cytiva P/N 28958325) is immobilized on a CM5 chip (Cytiva P/N 29104988) using standard NHS-EDC amine coupling on all four flow cells (Fc). Multispecific binding molecules (“MBM1” of Table 2, with or without conjugated siRNA (denoted by *) as described above) are prepared at 10 μg/mL by dilution into running buffer. Target (e.g., mouse TFR-mIgG1-Fc, mouse L1CAM-hIgG1-Fc and human L1CAM-hIgG1-Fc, respectively) are prepared at final concentrations of 100.0, 25.0, 6.25, 1.56, 0.39, 0.097, 0.024 and 0 (blank) nM by dilution into running buffer.
(§2) Each analysis cycle consists of (1) capturing multispecific binding molecule samples on separate flow cells (Fc2, Fc3 and Fc4); (2) injection of the respective concentration for the blood brain barrier target (e.g., TFR) over all Fc at 10 μL/min for 60 seconds followed by return to buffer flow for 1800 seconds to monitor dissociation phase; (3) injection of each human L1CAM concentration over all Fc at 100 μL/min for 120 seconds followed by return to buffer flow for 1200 seconds to monitor dissociation phase; (4) regeneration of chip surfaces with injection of 10 mM glycine, pH 1.5, for 30 seconds at 10 μL/min over all cells; and (5) equilibration of chip surfaces with a 10 μL (60-sec) injection of HBS-EP+. Data are processed using standard double-referencing and fit to a 1:1 binding model using Biacore T200 Evaluation software, version 2.0.3, to determine the association rate (kₒₙ, M⁻¹s⁻¹ units), dissociation rate (koff, s⁻¹ units), and Rₘₐₓ (RU units). The equilibrium dissociation constant (KD) is calculated from the relationship KD=koff/kₒₙ, and presented in molar units.

[2] = target: T2, human L1CAM-hIgG1-Fc (human, UniProt P32004 20-1120, limits assumed); assay: as above
T2 construct: also called hL1CAM; not shown: human IgG1 Fc
Description: as §1, §2

[3] = target: T1, mouse L1CAM-hIgG1-Fc; assay: SPR, Biacore T200, 25 C, MBM captured by human Fab capture kit, target as analyte, 1:1 fit (column head also prints '(10^-4)', not applied a second time)
Description: as §1, §2

[4] = target: T2, human L1CAM-hIgG1-Fc; assay: as above
Description: as §1, §2

[5] = target: T1, mouse L1CAM-hIgG1-Fc; assay: SPR, Biacore T200, 25 C, MBM captured by human Fab capture kit, KD=koff/kon (column head prints pM; text says molar units)
Description: as §1, §2

[6] = target: T2, human L1CAM-hIgG1-Fc; assay: as above
Description: as §1, §2

T1 sequence (P11627 20-1123 limits assumed): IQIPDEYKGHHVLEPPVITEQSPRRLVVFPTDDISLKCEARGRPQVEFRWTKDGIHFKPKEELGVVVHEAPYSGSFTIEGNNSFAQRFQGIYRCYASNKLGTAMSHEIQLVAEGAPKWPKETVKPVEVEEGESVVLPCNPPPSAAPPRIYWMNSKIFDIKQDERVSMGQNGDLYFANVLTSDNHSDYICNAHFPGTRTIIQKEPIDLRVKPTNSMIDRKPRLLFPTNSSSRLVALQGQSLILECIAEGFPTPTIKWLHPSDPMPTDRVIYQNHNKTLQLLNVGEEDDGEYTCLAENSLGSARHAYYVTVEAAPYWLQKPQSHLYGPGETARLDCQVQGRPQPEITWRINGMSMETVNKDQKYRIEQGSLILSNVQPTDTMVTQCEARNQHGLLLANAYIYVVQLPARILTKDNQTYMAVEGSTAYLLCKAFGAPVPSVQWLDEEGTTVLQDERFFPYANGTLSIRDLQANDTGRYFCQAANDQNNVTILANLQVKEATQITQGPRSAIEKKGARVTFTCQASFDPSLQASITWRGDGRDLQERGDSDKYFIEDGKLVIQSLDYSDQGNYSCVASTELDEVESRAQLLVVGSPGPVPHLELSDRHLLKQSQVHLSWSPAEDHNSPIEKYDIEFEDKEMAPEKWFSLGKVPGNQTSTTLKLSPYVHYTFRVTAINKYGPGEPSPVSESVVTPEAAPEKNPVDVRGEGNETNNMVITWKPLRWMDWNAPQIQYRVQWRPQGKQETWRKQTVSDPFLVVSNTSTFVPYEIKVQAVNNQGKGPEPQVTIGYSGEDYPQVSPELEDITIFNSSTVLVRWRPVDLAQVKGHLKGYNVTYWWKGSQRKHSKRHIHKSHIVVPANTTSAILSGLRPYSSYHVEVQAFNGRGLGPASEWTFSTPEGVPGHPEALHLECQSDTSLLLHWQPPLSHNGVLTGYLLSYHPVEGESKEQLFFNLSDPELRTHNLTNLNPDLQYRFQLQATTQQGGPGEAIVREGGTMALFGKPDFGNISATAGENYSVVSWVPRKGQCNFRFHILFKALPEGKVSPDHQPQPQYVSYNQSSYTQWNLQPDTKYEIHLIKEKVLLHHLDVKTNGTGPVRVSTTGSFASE
T2 sequence (P32004 20-1120 limits assumed): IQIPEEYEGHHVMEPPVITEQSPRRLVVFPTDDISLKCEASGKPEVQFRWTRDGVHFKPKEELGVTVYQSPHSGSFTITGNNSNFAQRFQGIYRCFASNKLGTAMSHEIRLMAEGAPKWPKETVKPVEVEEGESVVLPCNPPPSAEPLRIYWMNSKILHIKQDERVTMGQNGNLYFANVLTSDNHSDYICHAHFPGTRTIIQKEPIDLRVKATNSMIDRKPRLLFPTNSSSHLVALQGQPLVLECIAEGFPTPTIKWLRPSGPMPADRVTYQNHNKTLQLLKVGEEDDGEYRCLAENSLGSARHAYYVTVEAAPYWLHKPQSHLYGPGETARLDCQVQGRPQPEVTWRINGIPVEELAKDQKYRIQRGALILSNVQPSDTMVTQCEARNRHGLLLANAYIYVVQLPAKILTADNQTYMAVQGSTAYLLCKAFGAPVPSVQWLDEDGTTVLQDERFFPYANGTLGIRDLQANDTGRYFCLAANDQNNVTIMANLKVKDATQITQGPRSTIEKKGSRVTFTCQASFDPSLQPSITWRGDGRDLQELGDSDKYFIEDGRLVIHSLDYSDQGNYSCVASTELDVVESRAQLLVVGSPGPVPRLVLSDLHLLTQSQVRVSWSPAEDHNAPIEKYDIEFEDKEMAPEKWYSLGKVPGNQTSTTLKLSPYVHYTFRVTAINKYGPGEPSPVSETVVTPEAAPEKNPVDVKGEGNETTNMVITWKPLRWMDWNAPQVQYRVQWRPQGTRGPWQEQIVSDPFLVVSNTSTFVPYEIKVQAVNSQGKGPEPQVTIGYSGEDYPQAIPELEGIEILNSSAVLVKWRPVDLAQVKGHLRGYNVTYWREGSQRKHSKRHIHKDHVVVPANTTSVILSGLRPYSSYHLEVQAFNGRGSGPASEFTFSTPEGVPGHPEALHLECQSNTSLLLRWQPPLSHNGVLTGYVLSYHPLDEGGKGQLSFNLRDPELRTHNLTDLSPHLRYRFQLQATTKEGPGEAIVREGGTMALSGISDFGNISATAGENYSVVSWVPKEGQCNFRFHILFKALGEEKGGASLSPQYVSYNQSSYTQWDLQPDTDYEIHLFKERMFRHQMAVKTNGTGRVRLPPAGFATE

kon [1]: 220000 M⁻¹ s⁻¹ | kon [2]: 260000 M⁻¹ s⁻¹ | koff [3]: 0.00027 s⁻¹ | koff [4]: 0.00023 s⁻¹ | Kd [5]: 1200 pM | Kd [6]: 890 pM
B1: Exemplified multispecific binding molecule MBM1 with conjugated siRNA (MBM1*) (bispecific antibody, human IgG4 S228P, kappa, F234A L235A)
heavy 1: not shown
light 1: ALDMTQTASPVSAAVGGTVTINCQSSQSVYNNNRLAWYQQKPGQPPKLLIYDASTLASGVPSRFKGSGSGTQFTLTISGVQSDDSATYYCQGTYFSSGWSWAFGGGTEVVVKRTVAAPSVFIFPPSDEQLKSGTASVVCLLNNFYPREAKVQWKVDNALQSGNSQESVTEQDSKDSTYSLSSTLTLSKADYEKHKVYACEVTHQGLSSPVTKSFNRGEC
heavy 2: EVQLVESGGGVVQPGRSLRLSCAASGFTFSRFGMHWVRQAPGKGLEWVAFISNDGSNKYYADSVKGRFTISRDNSKNTLYLQMNSLRPEDTAVYYCARGRAYGSGSLFDPWGQGTLVTVSSASTKGPCVFPLAPCSRSTSESTAALGCLVKDYFPEPVTVSWNSGALTSGVHTFPAVLQSSGLYSLSSVVTVPSSSLGTKTYTCNVDHKPSNTKVDKRVESKYGPPCPPCPAPEAAGGPSVFLFPPKPKDTLMISRTPEVTCVVVDVSQEDPEVQFNWYVDGVEVHNAKTKPREEQFNSTYRVVSVLTVLHQDWLNGKEYKCKVSNKGLPSSIEKTISKAKGQPREPQVYTLPPSQEEMTKNQVSLTCLVKGFYPSDIAVEWESNGQPENNYKTTPPVLDSDGSFLLYSKLTVDKSRWQEGNVFSCSVMHEALHNHYTQKSLSLSLG
light 2: DIQMTQSPSSLSASVGDRVTITCKASQGISRFLSWFQQKPGKAPKSLIYAVSSLVDGVPSRFSGSGSGTDFTLTISSLQPEDFATYYCVQYNSYPYGFGGGTKVEIKRTVAAPSVFIFPPSDEQLKSGTASVVCLLNNFYPREAKVQWKVDNALQSGNSQESVTEQDSKDSTYSLSSTLTLSKADYEKHKVYACEVTHQGLSSPVTKSFNRGEC
modifications: conjugated siRNA (denoted by *); site not stated for the SPR sample; elsewhere 'siRNA linked at HC Constant region 1'
notes: Same four chains as MBM1, with siRNA conjugated

kon [1]: 400000 M⁻¹ s⁻¹ | kon [2]: 430000 M⁻¹ s⁻¹ | koff [3]: 0.0002 s⁻¹ | koff [4]: 0.00011 s⁻¹ | Kd [5]: 510 pM | Kd [6]: 270 pM
B2: Exemplified multispecific binding molecule MBM1 (heterodimeric IgG antibody, TFR arm and L1CAM arm) (bispecific antibody)
heavy 1: not shown
light 1: B1 light 1
heavy 2: B1 heavy 2
light 2: B1 light 2
notes: without siRNA; also called BD1 + BD9
